Assay: label from the status in PepcDB records

Sequence | protein production
MFVYAYILMLLLTVLMCINLFIDSFKCPVKIRRILRGLVFLIMLRYVTLLIMCLKKSITYIYFMRPIVLLDILYIPLVILIMIFVFTRSAKFNFVYAAISGIIFFSLYIFLNFKILKTANPFYSYSFGYLIDLKSYSVVVAVVKVMVLILMLMLCGYFLRKSNIRRAGFCFLMIVILVMLVENISIIIMPKVMPEYLFGEVLLLICLNYMVRLFKK | failed
MHRVGSAGSNGGSVRTRKEKKLTYVLNDANDTKHCAGINCLDVLKSSVSNDQSYLFTGSRDGTLKRWAFDEDATFCSATFESHVDWVNDAALAGESTLVSCSSDTTVKTWDGLSDGVCTRTLRQHSDYVTCLAVAAKNNNVVASGGLGGEVFIWDIEAALSPVTKPNDANEDSSSNGANGPVTSLRTVGSSNNISVQSSPSHGYTPTIAKGHKESVYALAMNDTGTMLVSGGTEKVLRVWDPRTGSKSMKLRGHTDNVRVLLLDSTGRFCLSGSSDSMIRLWDLGQQRCLHTYAVHTDSVWALACNPSFSHVYSGGRDQCLYLTDLATRESVLLCTKEHPIQQLALQDNSIWVATTDSSVERWPAEVQSPKTVFQRGGSFLAGNLSFNRARVSLEGLNPAPAYKEPSITVPGTHPIVQHEILNNKRQILTKDAAGSVKLWDITRGVVVEDYGKISFEEKKEELFEMVSIPSWFTVDTRLGCLSVHLETPQCFSAEMYSADLKVSGRPEDDKINLARETLKGLLGHWLAKKKHKPKPQVLASGDTLSVKDTKKNLSASKTEESSAASDPVYPPFEFSSVSPPSIITEGSQGGPWRKKITEFTGTEDEKDFPLWCLDAVLNNRLPPRENTKLSFFLHPCEGSSVQVVTLGKLSAPRILRVHKVTNYVVEKMVLDNPLDSLAIDAASVSGGQPQPLFSGNGLLQSGLKPWQKLRPSIEILCNSQVLSPDMSLATVRAYVWKKPEDLILNYRVAIAR | failed
MQYIKIHALDNVAVALADLAEGTEVSVDNQTVTLRQDVARGHKFALTDIAKGANVIKYGLPIGYALADIAAGEHVHAHNTRTNL | not failed
MSLNVQTVAVIGSGTMGAGIAEVAASHGHQVLLYDISAEALTRAIDGIHARLNSRVTRGKLTAETCERTLKRLIPVTDIHALAAADLVIEAASERLEVKKALFAQLAEVCPPQTLLTTNTSSISITAIAAEIKNPERVAGLHFFNPAPVMKLVEVVSGLATAAEVVEQLCELTLSWGKQPVRCHSTPGFIVNRVARPYYSEAWRALEEQVAAPEVIDAALRDGAGFPMGPLELTDLIGQDVNFAVTCSVFNAFWQERRFLPSLVQQELVIGGRLGKKSGLGVYDWRAEREAVVGLEAVSDSFSPMKVEKKSDGVTEIDDVLLIETQGETAQALAIRLARPVVVIDKMAGKVVTIAAAAVNPDSATRKAIYYLQQQGKTVLQIADYPGMLIWRTVAMIINEALDALQKGVASEQDIDTAMRLGVNYPYGPLAWGAQLGWQRILRLLENLQHHYGEERYRPCSLLRQRALLESGYESEGHHHHHH | not failed
GSPLLAPAFEPSLGPPPEGAPPTIEAWFSFRSPYSWLFMPRIRHLAQAYGATLELRPILPMVMRGLAVPRIKTIYITLDCKREAERVGLPFGRIVDPVGAGAERALAVLHHAMALGLGEQFAELGLKAAFADGIALAEDEGLYGVARRAGLTDAQTAAALADDSWRQRAETNRAALLEAGLWGAPTFRITGHQAHWGQDRLYMLEEDLRAAMQGAAAPR | failed
SLGDQKPATIYAPTVRVTPNPAWPQVSWQLLVAKPSAARIIDSPRINVRPTPGELQVYHGAGWAQPATDMLEDSVVRAFEDSGKIAAVARIGAGIRSDYKLAIDVRRFESDYAGQSLPAATIELNAKLLHSSDQRVVASRTFTVARPSSSTDTAAVAAAFEQALTQVTTELVGWTLITGQQDSQTLPRAL | not failed
SFKPVMQKFLHDHVDLQVSALYALQVHCYNSNFPKGMLLRFFVHFYDMEIIEEEAFLAWKEDITQEFPGKGKALFQVNQ | failed
AALAAKVRTLGPSMTRSMQRVAEAVAGDPAGCAALTVTGLAELTGTSEATVVRTARLLGYPGYRDLRLALAGLAAQQQSGRAPAITTDIAVDDPIADVVAKLAYDEQQTL | failed
MKDGMKQQKLVEKMTIEEKAAILSGKTVWQTREIDRLSIPSIFLSDGPHGIRKQAGTGDHLGLNASLNATCFPTAATIANSWNQNLGEEIGQALGEEAASMDVNILLGPGLNIKRSPLCGRNFEYFSEDPYLSGKMAASYIRGIQSKGVYACPKHLAVNSQELRRMAMDAVVDERTLREIYLTGFEIAVKEGHAKAIMSSYNQINGIYANEDKHLLTDILRKDWGFDGIVVTDWGGSNDHVKGVAAGSNLEMPSCGYDSAREVIAAVQNGKLKEADLDERVGELVDAVMELTSGKKLSDKNFDRNEHHQLARKAAAESMILLKNEKQILPLDTKKSIAVIGDFAFSPRYQGAGSSMVNPTKVEDMSSILQQYDLNILGMTRGYHRNGDVDENDRKFALNLSMNADIVIFCFGLDEISESEGLDRTHMRIPQDQIDLLQDISKVNENVIGILSAGSAIEMPWHTCCKAILHGYLNGQAGASATLDILTGKVNPSGRLAETYPISYEQTPAYRYYPSNEKTSEYRESVYVGYRYYDTSKVRVQYPFGFGLSYTEFTYSDLIIEEDGIKVSVTNTGDRDGAEVVQMYVGLPNAIVFRPEKELKGFAKVYLKAGESRQIRIPFDDKTFRYWNIKTGQWEIETGTYQIMVGASVADIRLTGMTERTGNSKGYPYNPAKMPYYYTGIVQKISDEEFRELLGHEIPNRRWSGNLEINDAICQMYYAKSRLARLIYRCLTKMKKKSEAQGKPDLNILFIYNMPFRGIAKMTGGAVSMEMVYGIVDAVNGHFMLGVKKIIGGYFRNRRNNKKYEKLLKGAGGKCR | failed
MDELIKILHAQFGHASFRPGQREVVEDVLAGRDVLAMLPTGSGKSLCYQLPAYLLPGSVLVVSPLVSLMEDQVEQLRRRGEKRVIAFHSLLDAEEKWQALASLPDFRFIYASPEMLQSAKFLTALGRTRISLFVVDEAHCISQWGYDFRPDFLKLGTVRRALGSPPCLALTATAPPEVRDDIVRTLGMERACLHIYSVDRPNIALKVEYCLSAEEKAARLVEYARQLEGPGIVYFSSRQWAEEMARRLEQSGAGRVAYYHAGMDGEQRLLVQQQFLYGQLDIVCCTSAFGMGVNKENVRFVLHFHMPAQLEAYVQEIGRAGRDGAPSLAVLFYADGDRAIAQAVAEAELPDPHELREWCWRLPDNVAVEQWNAAIEASGFTEIQKRLLTYLLEWGQTAPPGRLTAEVKEQLYERMAAAIETRRRWKRKKLHEMDDWVHTSSCRRAMIVRAFGEELMDKPGDCCDCCGLRLDAYMRDTRRLAAAPIRHWREELWQMFFSRGRQDETAK | failed
MTSNGQQGKPNLPEKDNLPRELGTQRINSPIARMGMFGAKTTGDTSGYGRLRVYRHVPAAAQRPYSDPSDPRTAYFDEVADALERSLKEIGTPYDTAISRVVVDRGEITFHVQREHLLDVATRLRDDPALRFELCLGVTGVHYPEDEGNELHAVYALRSITHNYEIRLEVSCPDSDPHIPSIVSVYPTNDWHEREAWDFFGIIFDGHPALTR | not failed
MRKEIRFSGFGGQGIILAGVILGRAASLYAGKEAVQTQSYGPEARGGASKSEVVISEIEIDFPKVIQPDILISMSQPAFDKYGYDLKENARVIVDRDLVNLPEGYEEKYEVYKVPFTEIANKEVGLGIVANIVMLGALTKLSGLVPKEEVEKALLDSIPKGTEKKNLMAFEKGYEYL | not failed
MRISKTTKIGALTLIALFLLYFGLNYLKGFNVFKRANVYYAAFPEVKNVNIASPVLVNGYKVGVVKSLSFDYKNGRSIVVGIDLESEYRMPKGSHLAIHQTALSGAELRIIQGDPRDGYLNPGDTIRSETPDDIMSVTSNKIVPSVVNMMPKVDSVIVGLANMVNNPNLAVMMENMAATAQRLNRLTASLDKSIGTQLPAVMANTRTITDNVAMLSEELKQLKLEALMAELQATSENLRSFSDQIRNSNGSLGMLLNDKSLYMRLDSMASSADALLRDLKANPKRYVHFSVF | failed
SKCLERFGPFYLLYKDRLSFVNADASELTFHPDTAVLRLKAPHDALISLLGQSPKSILDTTMGLASDSLVMAAVRNRVTALESQEVIFQVVSRGLATYQTDNKQIEKAMRSIKAVKSDSLTFLKSQTDHSFDIIYADPMFSETIKESENLNAIKPLANGSRLTREWLDEAKRVGRERIIIKAHFRDSVFEELGFERQVRP | failed
MNSTLKSSVYILLIISVILVLNGYSYADSYVGGKPLDTLQNGTVTGDVNVDSYYGFTDPEGVGNNTGGNANITYTFNYTIPSNAQIKNATLYVLVYSGHMQEARQTYVNVTYNGNSLENQTLYTTYIYPPEGNNNTWLLGEGHDNDPYLMINNHTMRVTSDYLLWYDVTNMTKKDMNNTANVCTIGSYDGRIKLITLIVAYNIPGSTTATRYWINWGHDVSSYNDEDYTGETYFNGAVPNPANASVMIVHAASSDGIYTYNDQNLPNGTYQRRGSYSGYEIWNVTNIYNNGTNKFTYHKSPGTGLGGYYKIILAVQKVTYTPNIDLTLQTVTFNGGAAFVLENNTMRCQIKNNGSGASPATILALYANDELVATSIIPPINPSGTVYVNITDPTIRSATTETLYSNNNQNVTYRFVIDPYNEVPETNEANNEKTRTVPVLYNGYKG | failed
MSNSMLDKNKAILTGGGALLLGLIVLFYLAYRPKAEVLQGFLEAREYSVSSKVPGRIEKVFVKKGDHIKKGDLVFSISSPELEAKLAQAEAGHKAAKALSDEVKRGSRDETINSARDVWQAAKSQATLAKETYKRVQDLYDNGVASLQKRDEAYAAYESTKYNESAAYQKYKMALGGASSESKIAAKAKESAALGQVNEVESYLKDVKATAPIDGEVSNVLLSGGELSPKGFPVVLMIDLKDSWLKISVPEKYLNEFKVGKEFEGYIPALKKSTKFRVKYLSVMGDFATWKATNNSNTYDMKSYEVEAIPLEELENFRVGMSVLVTIKP | failed
MVGSSETETKEHREAEERSSRESATATGKVSGKENELRPTYVYLLMMPENHNVDVQQTLQEQRKRNIKKARIEARLKLDQIRPTVVLENSRATKMMIEWGFTDFRKLQGSNLGNKKWICWVRKHCC | not failed
MTLVEFPAITFAAVVCWAVGSLLQIPAKNSKVSGPLSWLFLFSGTLVLVWFLASYWIALDRPPLRTLGETRLWYATLIPVVGFLVEYRYKIGWLKYYCMGLATVFLGINYMHPDVFEKALMPALQSPWFVPHVVVYLVGYVLLAASAVSGWHNVFLNFRGKRSAKGESMAHYLALLGFVLLTFGLIFGALWAKEAWGHYWTWDPKETWAFISWLAYLGYLHLVACKTDPRKLQWYLGLAFFVLLVCWFGVNYLPSAQNSVHTYSGAS | failed
MPFCPEEFYCRITQNIESLNNIAKIQHAANTDYLTDLANRRAFFRSAESRIKEYINKKVPYCLAMIDVDFFKKVNDTYGHDSGDQVLKVIALYMRKHFGAGLTARLGGEEFAVLLHGLDADYLHNKLDDFRREIAVSSIPAGDTSISITLSLGVVFDSEDELSKQMNEADNALYAAKENGRNQIVVFGAELDDLEHHHHHH | failed
MRAKKRKFLQKEELSKLLQSLDMSQIGFGWFVMLAAKTGMRYAEALAITPADFDWTAQTISINKTWDYKYNKGFAKTKTLSSVRTIKIDWQIVGQFKPLIKDFPEDEPIFVEKFGDGTYKRQFNSTINNFLAVKCNETGITQISFHALRHTHASVLLAEGVSIHTISARLGHADVGVTQETYAHVLDELQKKDDQKMLSVLMQIALEHHHHHH | not failed
MASDPITTQEFSPRQNAVLDQALRLLVEGGEKALTTSGLARAANCSKESLYKWFGDRDGLLAAMITFQQSKVRTFEKAGDRVSAPQLADHLEVFAHDLLDVLAGDVSLALNRLAIGQASRDGSKLGDLLLERGRRQIDRRARGLIEAGRRSGYLRFDDAEEAYRSFYGLIVSDLHVRMLLGEAPDKDFSARAKKAVVAFLTLYGTEKVHSELGGKVA | not failed

Source: a protein production outcome set (Wang et al. 2014)
